Source: paper PMC3347535, “D-Arabinose Methabolism: Characterization of Bifunctional Arabinokinase/Pyrophosphorylase of Leishmania major” (Acta Naturae, 2009)

System: O=P(O)(O)OC1OC[C@@H](O)[C@@H](O)[C@@H]1O
Test: purified protein
Details: GDP-D-Arap pyrophosphorylase reaction; GTP co-substrate; exogenous arabinose phosphate; kinetic assay conditions not given

**Q.** For LmjF16.0480 (Leishmania major), which Km is on record?
**A.** 67.0 mM
